In general, stoichiometry N refers to a count of units in the complex or per binding partner.

Stoichiometry N data for four substances are collected here from paper PMC10359499.

Test [1] has as its target MS367 (PAS histidine kinase from Methylocella silvestris BL2) (Methylocella silvestris BL2). Put plainly: SEC-MALS; PAS-HKs MS367 and RE356; mixtures, and monomer and dimer fractions purified separately and reinjected on Superdex 200 GL; HSEC buffer with 1 mM ATP; FPLC at 4 °C, MALS at 25 °C; n = 1. (In gel filtration, larger molecules generally elute earlier.)
The target in test [2] is RE356 (PAS histidine kinase from Rhizobium etli CFN 42) (Rhizobium etli CFN 42). Described as above.
In test [3] the target is RT349 (LOV histidine kinase from Rubellimicrobium thermophilum) (Rubellimicrobium thermophilum). Put plainly: SEC-MALS; LOV-HKs and RH376 deletion mutants; ~15 μM sample (400 μl) with 1 mM ATP on Superdex 200 GL 10/300 in HSEC buffer (50 mM Hepes pH 7.5, 100 mM NaCl, 10 mM MgCl2, 0.5 mM DTT) with 1 mM ATP; dark (dim red light) and lit (blue LED) runs; FPLC at 4 °C, MALS and refractive index at 25 °C; n = 1; oligomeric state on a qualitative five-bin scale.

In test [4] the target is RH376 WT (LOV histidine kinase). The test is described as above.

For “MS367 (PAS histidine kinase from Methylocella silvestris BL2) (enzyme)”, the stoichiometry N in test [1] stood at 2.

In the case of “RE356 (PAS histidine kinase from Rhizobium etli CFN 42) (enzyme)”, the stoichiometry N in test [2] amounted to 2.

As to “RT349 (LOV histidine kinase from Rubellimicrobium thermophilum) (enzyme)”, the stoichiometry N in test [3] is 2.

In test [4], “RH376 WT (LOV histidine kinase) (enzyme)” showed a stoichiometry N of 2.
